From the supplement of paper PMC9112550, “Optimization of the antimicrobial peptide Bac7 by deep mutational scanning” (BMC Biology, 2022) come the findings set out here.
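Note: peptides expressed intracellularly from a pBAD plasmid library in pooled LB shake-flask culture, induced with 0.3% L-arabinose, DNA abundance read by NGS, three biological replicates, DESeq2 with apeglm shrinkage.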

The data set has as its system Escherichia coli TOP10. The data set is described as follows: shrunken log2 fold change of peptide-encoding DNA abundance (4.5 h post-induction vs induction); higher = less antimicrobial activity (less host growth inhibition). The conditions noted are these: time post-induction: 4.5 h; library: site-saturation at positions 5, 18, 19, 20.
RRIRFRPPRLPRPRPRPIKFPRP: the “shrunken log2 fold change” value is -0.587.
Then RRIRERPPRLPRPRPRPYRSPRP, with -1.42; and RRIRPRPPRLPRPRPRPGAPPRP, with 0.536.
Then RRIRGRPPRLPRPRPRPMHIPRP, with 1.77.
With RRIRDRPPRLPRPRPRPFGGPRP, the “shrunken log2 fold change” value was -0.0275.
Next, RRIRTRPPRLPRPRPRPWGIPRP: -0.0774; RRIRVRPPRLPRPRPRPRAKPRP: 0.16; RRIRYRPPRLPRPRPRPCQLPRP: -0.00957.
Next, RRIRVRPPRLPRPRPRPLTMPRP: -0.319; RRIRLRPPRLPRPRPRPAQLPRP: 0.166; RRIRDRPPRLPRPRPRPGGPPRP: 0.247.
Consider RRIRGRPPRLPRPRPRPIHRPRP, for which the “shrunken log2 fold change” value was determined as 0.0525.
Then RRIRIRPPRLPRPRPRPKRCPRP, with -0.00138; and RRIRNRPPRLPRPRPRPWIQPRP, with -0.209; and RRIRDRPPRLPRPRPRPLKMPRP, with 0.122.
Next, RRIRHRPPRLPRPRPRPHWEPRP: -0.211.
In the case of RRIRARPPRLPRPRPRPGDTPRP, the “shrunken log2 fold change” value was determined as 0.264.
With RRIRCRPPRLPRPRPRPNMQPRP, the “shrunken log2 fold change” value was -0.423.
Next, RRIRSRPPRLPRPRPRPHAWPRP: 0.149.
Take RRIRKRPPRLPRPRPRPFPIPRP: the “shrunken log2 fold change” value is -0.0405.
Next, RRIRIRPPRLPRPRPRPYCCPRP: -0.476.
Then RRIRRRPPRLPRPRPRPYYAPRP, with -0.561; and RRIRHRPPRLPRPRPRPSKFPRP, with -0.64.
For RRIRMRPPRLPRPRPRPEFWPRP, the “shrunken log2 fold change” value was determined as 0.893.
Consider RRIRFRPPRLPRPRPRPNMYPRP, for which the “shrunken log2 fold change” value was -0.712.
Turning to RRIRWRPPRLPRPRPRPDWQPRP, the “shrunken log2 fold change” value came out at 0.00408.
As for RRIRQRPPRLPRPRPRPFFLPRP, the “shrunken log2 fold change” value is -0.376.
Then RRIRMRPPRLPRPRPRPYDNPRP, with 0.213; and RRIRMRPPRLPRPRPRPIAAPRP, with 2.71; and RRIRIRPPRLPRPRPRPYAAPRP, with -0.563.
As for RRIRHRPPRLPRPRPRPMHAPRP, the “shrunken log2 fold change” value was -9.3e-05.
Next, RRIRERPPRLPRPRPRPPNAPRP: 0.186.
Then RRIRLRPPRLPRPRPRPIKTPRP, with -0.0953; and RRIRVRPPRLPRPRPRPLMPPRP, with 0.0146.
Next, RRIRFRPPRLPRPRPRPRDQPRP: 0.0987.
On to RRIRDRPPRLPRPRPRPNQSPRP, for which the “shrunken log2 fold change” value is -0.527.
RRIRVRPPRLPRPRPRPYSRPRP: the “shrunken log2 fold change” value is -0.0134.
In the case of RRIRERPPRLPRPRPRPNTVPRP, the “shrunken log2 fold change” value was -0.595.
Next, RRIRQRPPRLPRPRPRPRGAPRP: 0.399; RRIRARPPRLPRPRPRPYWCPRP: -0.33; RRIRTRPPRLPRPRPRPDPYPRP: 0.001.
Then RRIRTRPPRLPRPRPRPDRMPRP, with -0.0127; and RRIRQRPPRLPRPRPRPWDRPRP, with -0.127; and RRIRIRPPRLPRPRPRPVKNPRP, with -0.765.
Then RRIRHRPPRLPRPRPRPRYHPRP, with -0.315.
On to RRIRSRPPRLPRPRPRPLERPRP, for which the “shrunken log2 fold change” value is -0.0196.
Next, RRIRNRPPRLPRPRPRPRDIPRP: -0.138.
As to RRIRYRPPRLPRPRPRPAMTPRP, the “shrunken log2 fold change” value came out at 0.165.
Then RRIRYRPPRLPRPRPRPPKEPRP, with -0.00185; and RRIRERPPRLPRPRPRPANKPRP, with -0.632.
Next, RRIRTRPPRLPRPRPRPPTLPRP: 0.0694; RRIRSRPPRLPRPRPRPDTGPRP: -0.00127; RRIRPRPPRLPRPRPRPQNVPRP: -0.212.
Then RRIRGRPPRLPRPRPRPHKGPRP, with -0.136; and RRIRLRPPRLPRPRPRPGSMPRP, with -0.192.
With RRIRGRPPRLPRPRPRPGMTPRP, the “shrunken log2 fold change” value was found to be 0.792.
Regarding RRIRQRPPRLPRPRPRPANLPRP, the “shrunken log2 fold change” value amounted to 0.164.
Then RRIRSRPPRLPRPRPRPSWHPRP, with -0.206; and RRIRSRPPRLPRPRPRPRMNPRP, with 0.079.
For the sequence RRIRQRPPRLPRPRPRPEPMPRP, the “shrunken log2 fold change” value came out at 0.0452.
Next, RRIRNRPPRLPRPRPRPLIKPRP: -0.651; RRIRFRPPRLPRPRPRPPDMPRP: -0.147.
